Test results from patent US20260200999A1, “SYNTHETIC TRANSCRIPTION FACTORS” (ETH ZURICH, priority 2022, published 2026).

B1: SEQ ID NO: 51: negative control promoter comprising 5 scrambled DNA binding sites spaced by 10 bp (nucleic acid)
DNA: ATTCTACCGTCTCGGGCCATTAAAGGCATATGATTCTACCGTCTCGGGCCATTAAAGGCATATGATTCTACCGTCTCGGGCCATTAAAGGCATATGATTCTACCGTCTCGGGCCATTAAAGGCATATGATTCTACCGTCTCGGGCCATTA
B2: FRB::RelA430-551: FRBT2098L fused to RelA430-551 (protein)
chain: MVAILWHEMWHEGLEEASRLYFGERNVKGMFEVLEPLHAMMERGPQTLKETSFNQAYGRDLMEAQEWCRKYMKSGNVKDLLQAWDLYYHVFRRISQAGEGTLSEALLQLQFDDEDLGALLGNSTDPAVFTDLASVDNSEFQQLLNQGIPVAPHTTEPMLMEYPEAITRLVTGAQRPPDPAPAPLGAPGLPNGLLSGDEDFSSIADMDFSALLSQISS

Legend:
[1] = test system: Response Element-driven mCerulean reporter (MTERF1 binding sites, SEQ ID NO: 42); assay: mCerulean reporter co-transfection with HumTAP constructs in HEK293 cells (flow cytometry); assay type: cell-based, human; settings: HEK293 cells co-transfected with MTF construct; microscopy and flow cytometry
Text: To construct a promoter with Response Elements/MTERF1 binding sites driving the gene of interest, the inventors placed MTERF1 binding sites (SEQ ID NO: 42) upstream a minimal TATA box (SEQ ID NO: 103). An mCerulean fluorescent reporter representing the gene of interest (Gol) was placed downstream of the TATA box. Each of these is referred to as a reporter construct. Five different reporter constructs were made comprising respectively 3, 5, 7, 9, and 11 MTERF1 binding sites 6 base pairs apart upstream of the TATA box (FIG. 1A; SEQ ID NO: 41, 44, 45, 46 and 47, respectively). They were co-transfected with the MTF construct into Hela cells. […] Using flow cytometry, relative mCerulean levels were measured and calculated by normalization to the transfection control in Hela cells (FIG. 1C). […] Next, reporter plasmids with varying spacer lengths (0, 6 bp and 10 bp; SEQ ID NO: 48, 44 and 49, respectively) (FIG. 1F) between a fixed number of REs (i.e. 5 REs/MTERF1 binding sites) were transfected with the MTF construct. […] This was confirmed using flow cytometry (FIG. 1H). […]
With the goal to engineer stronger and possibly shorter HumTAPs, the inventors fused the MTERF158-399 peptide (SEQ ID NO: 1) to a variety of transactivation domains and transfected HEK293 cells with those constructs and the reporter construct comprising 5×RE/MTERF1 binding sites without a spacer between them (SEQ ID NO: 48).
First, MTERF158-399 (SEQ ID NO: 1) was fused with different subsequences of RelA. RelA361-551 (SEQ ID NO: 27) corresponds to the sequence used in the construction of the bacterial-derived synthetic TF PIT2 [19], while RelA342-551 (SEQ ID NO: 29) contains all annotated transactivation domains according to domain annotation under Uniprot Q04206 (https://www.uniprot.org/uniprotkb/Q04206/entry). […] We also fused MTERF158-399 (SEQ ID NO: 1) to a set of transactivation domains previously found to be strong activators with a small genetic footprint (FIG. 4B).
To further decrease the DNA footprint of a HumTAP, the inventors investigated to what degree the DNA binding domain may be reduced. To this end, the inventors created 3 versions of MTERF1 subsequences fused to RelA430-551 (SEQ ID NO: 3). MTERF173-399 (SEQ ID NO: 7), MTERF1104-399 (SEQ ID NO: 9), and MTERF1135-399 (SEQ ID NO: 11) are subunits of MTERF1 without its mitochondrial transfer peptide (MTERF11-57; SEQ ID NO: 37) that either lack only the first […] N-terminal amino acids (MTERF58-72; SEQ ID NO: 39) or additionally, also lack the first (MTERF173-98; SEQ ID NO: 104) or both the first and second (MTERF1104-134; SEQ ID NO: 106) mterf motifs (FIG. 5A). The removal of N-terminal domains reduces the genetic footprint of a HumTAP (FIG. 5B). These constructs were co-transfected into HEK293 cells with the reporter construct containing 5×RE without a spacer in its promoter (SEQ ID NO: 48).
In addition to RelA430-551 (termed “v1”), the inventors tested three alternative subsequences: v2) RelA342-551 (SEQ ID NO: 29), which contains all transactivation domains as annotated on UniProt Q04206; v3) RelA361-551 (SEQ ID NO: 27), which is identical to the peptide used in the construction of PIT2 [2]; and v4) RelA521-551 (SEQ ID NO: 31), which constitutes only the transactivation domain 1 (TA1). The protein domains WW (SEQ ID NO: 21), KRAB of ZNF473 (SEQ ID NO: 23), Nuc-rec-co-Act (SEQ ID NO: 25), LMSTEN (SEQ ID NO: 19), and FoxoTAD (SEQ ID NO: 17) were recently identified as strong transactivators. To assess their functionality in the HumTAP context, the inventors created fusion proteins between each of them and MTERF158-399 (SEQ ID NO: 1) (FIG. 9A).
Upon co-transfection of HEK293 cells with plasmids encoding pEF1a-driven expression of the fusion HumTAPs, a Response Element-driven mCerulean reporter protein, and a mCherry transfection control, all peptides derived from RelA except TA1 mediated high levels of reporter gene expression. […]

[2] = test system: reporter construct with MTERF1 binding sites (SEQ ID NO: 42) upstream a minimal TATA box driving mCerulean; assay: mCerulean reporter co-transfection with MTF construct in Hela cells (microscopy, flow cytometry); assay type: cell-based, human; settings: Hela cells co-transfected with MTF construct; microscopy and flow cytometry
Text: The inventors engineered an exemplary “Human-derived transcriptional activator protein” (HumTAP) transactivation system by engineering a HumTAP transactivator and a promoter comprising the Response Elements/MTERF1 binding sites that is operably linked to a gene of interest. A prototype HumTAP protein was made by fusing a peptide consisting of amino acids 58 through 399 of the human MTERF1 gene (MTERF158-399 (SEQ ID NO: 1), Uniprot Q99551) to a peptide consisting of amino acids 430 through 551 of the RELA protein (RelA430-551 (SEQ ID NO: 3), Uniprot Q04206). This fusion is henceforth referred to as MTERF158-399::RelA430-551 (or “MTF”; SEQ ID NO: 100). A DNA construct was made with a strong EF1A promoter driving a constitutive expression of MTF (SEQ ID NO: 101) in human cells (“MTF construct”).
To construct a promoter with Response Elements/MTERF1 binding sites driving the gene of interest, the inventors placed MTERF1 binding sites (SEQ ID NO: 42) upstream a minimal TATA box (SEQ ID NO: 103). An mCerulean fluorescent reporter representing the gene of interest (Gol) was placed downstream of the TATA box. Each of these is referred to as a reporter construct. […] Using flow cytometry, relative mCerulean levels were measured and calculated by normalization to the transfection control in Hela cells (FIG. 1C). […]

[3] = target: T1, FKBP (SEQ ID NO: 142) and FRBT2098L (SEQ ID NO: 140) heterodimerization (Homo sapiens, UniProt P42345+P62942+Q04206, T2098L); assay: A/C heterodimerizer-inducible HumTAP gene expression system in HEK293 cells; assay type: cell-based; settings: HEK293; constant A/C heterodimerizer concentration of 100 nM; FIG. 10B
T1 construct: expressed in transfected cells; host or cells: HEK293
Text: One well-characterized small-molecule based dimerization system is based on the rapamycin analog A/C (C16-(S)-7-methylindolerapamycin) that induces heterodimerization between the human proteins FK506-binding protein 12 (FKBP; SEQ ID NO: 142) and the FKBP12-rapamycin binding domain (FRB) mutant FRBT2098L (SEQ ID NO: 140), [31]. To achieve A/C heterodimerizer-inducible gene expression, the inventors fused FKBP (SEQ ID NO: 142) to the N-terminus of MTERF158-399 (SEQ ID NO: 1) and FRB (SEQ ID NO: 140) to the C-terminus of different transactivation domains (FIG. 10A). […] In accordance with the results described above, chimeric transactivation domains mediated higher maximal output expression levels than RelA430-551.
The inventors reasoned that in the present system, dimerization might be hindered by either FRB's or FKBP's fusion partner and investigated whether the addition of linkers between the protein domains might impact the EC50 value (FIG. 10 D). A combination of the cMyc nuclear localization signal (NLS) (SEQ ID NO: 122) linking MTERF158-399 and FKBP, and the rigid linker AP6 (SEQ ID NO: 120) linking FRB and RelA430-551 led to a reduction in EC50 to ~60 nM while also increasing maximal output ~3-fold over the variant without linkers and RelA430-551 as TAD (FIG. 10 D).

T1 sequence (P62942 with tags, fused parts or gaps, stated change not applied, one chain of several): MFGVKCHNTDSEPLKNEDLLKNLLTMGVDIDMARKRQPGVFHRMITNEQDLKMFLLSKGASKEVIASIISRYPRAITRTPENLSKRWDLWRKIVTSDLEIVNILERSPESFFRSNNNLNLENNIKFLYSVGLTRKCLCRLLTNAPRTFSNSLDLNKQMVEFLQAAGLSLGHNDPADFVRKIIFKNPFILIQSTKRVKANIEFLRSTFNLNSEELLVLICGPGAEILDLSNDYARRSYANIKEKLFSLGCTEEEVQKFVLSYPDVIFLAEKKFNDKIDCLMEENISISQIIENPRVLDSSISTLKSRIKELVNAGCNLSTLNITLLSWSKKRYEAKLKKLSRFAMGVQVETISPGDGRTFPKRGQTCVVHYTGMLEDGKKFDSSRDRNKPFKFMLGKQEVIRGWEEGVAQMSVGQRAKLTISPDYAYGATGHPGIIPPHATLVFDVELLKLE

Row | Molecule | mCerulean reporter (Gol) expression [1] | mCerulean reporter (Gol) expression [2] | molar excess over the MTERF158-399: FKBP plasmid giving the highest mCerulean levels [3] [fold]
1 | B1 | showed the same behavior | did not lead to mCerulean expression | 
2 | B2 |  |  | 4
